Assay results published in article PMC4689616 (Nature cell biology, 2015).

T1: TTC7B(9-843) (UniProt Q86TV6 9-843)
T1 sequence: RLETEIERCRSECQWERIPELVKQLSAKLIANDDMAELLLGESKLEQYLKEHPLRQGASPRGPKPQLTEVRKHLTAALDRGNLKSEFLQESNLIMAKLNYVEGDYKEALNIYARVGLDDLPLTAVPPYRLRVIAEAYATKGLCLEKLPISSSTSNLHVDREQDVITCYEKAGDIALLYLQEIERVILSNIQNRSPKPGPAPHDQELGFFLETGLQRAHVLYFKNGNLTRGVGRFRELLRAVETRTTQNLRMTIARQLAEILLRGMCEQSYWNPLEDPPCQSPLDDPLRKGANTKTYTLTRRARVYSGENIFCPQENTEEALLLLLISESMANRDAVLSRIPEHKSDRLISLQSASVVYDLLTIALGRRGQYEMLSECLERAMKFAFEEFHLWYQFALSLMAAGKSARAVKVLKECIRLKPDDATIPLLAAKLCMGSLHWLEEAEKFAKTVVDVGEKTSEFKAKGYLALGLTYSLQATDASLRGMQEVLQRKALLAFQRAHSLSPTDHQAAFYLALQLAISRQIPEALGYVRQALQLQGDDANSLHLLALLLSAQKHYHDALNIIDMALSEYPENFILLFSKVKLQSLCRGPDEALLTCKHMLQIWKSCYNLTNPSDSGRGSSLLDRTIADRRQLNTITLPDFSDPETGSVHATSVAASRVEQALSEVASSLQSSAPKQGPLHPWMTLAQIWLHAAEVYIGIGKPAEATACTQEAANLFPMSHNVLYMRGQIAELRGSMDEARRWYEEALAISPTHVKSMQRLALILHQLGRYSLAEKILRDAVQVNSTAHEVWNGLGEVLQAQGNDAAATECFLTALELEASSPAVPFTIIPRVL

B1: FAM126A(2-308) (domain or fragment)
chain: FTSEKGVVEEWLSEFKTLPETSLPNYATNLKDKSSLVSSLYKVIQEPQSELLEPVCHQLFEFYRSGEEQLLQFTLQFLPELIWCYLAVSASRNVHSSGCIEALLLGVYNLEIVDKQGHTKVLSFTIPSLSKPSVYHEPSSIGSMALTESALSQHGLSKVVYSGPHPQREMLTAQNRFEVLTFLLLCYNAALTYMPSVSLQSLCQICSRICVCGYPRQHVRKYKGISSRIPVSSGFMVQMLTGIYFAFYNGEWDLAQKALDDIIYRAQLELYPEPLLVANAIKASLPHGPMKSNKEGTRCIQVEITPT
B2: GST-FAM126A-N/TTC7B dimer (complex)
chain 1: B1 chain
chain 2: T1 sequence

Key:
TTC7B(9-843) = target: T1, TTC7B(9-843); test: SEC
[1] = target: 3xFLAG-PI4KIIIα (wild-type) (UniProt P42356-1 1-2102); test: pull-down

Row | Binder | binding result (TTC7B(9-843)) | binding result [1]
1 | B1 | binds | 
2 | B2 |  | binds
